Assay results taken from patent US20110091994A1, “Methods for Screening Compounds for Treating and/or Preventing an Hepatitis C Virus Infection” (priority 2008, published 2011).
Where two headings read alike, the source gives them in different places.

B1: MAGED1 (protein, UniProt Q9Y5V3 1-778, looked up)
Melanoma-associated antigen D1: MAQKMDCGAGLLGFQAEASVEDSALLMQTLMEAIQISEAPPTNQATAAASPQSSQPPTANEMADIQVSAAAARPKSAFKVQNATTKGPNGVYDFSQAHNAKDVPNTQPKAAFKSQNATPKGPNAAYDFSQAATTGELAANKSEMAFKAQNATTKVGPNATYNFSQSLNANDLANSRPKTPFKAWNDTTKAPTADTQTQNVNQAKMATSQADIETDPGISEPDGATAQTSADGSQAQNLESRTIIRGKRTRKINNLNVEENSSGDQRRAPLAAGTWRSAPVPVTTQNPPGAPPNVLWQTPLAWQNPSGWQNQTARQTPPARQSPPARQTPPAWQNPVAWQNPVIWPNPVIWQNPVIWPNPIVWPGPVVWPNPLAWQNPPGWQTPPGWQTPPGWQGPPDWQGPPDWPLPPDWPLPPDWPLPTDWPLPPDWIPADWPIPPDWQNLRPSPNLRPSPNSRASQNPGAAQPRDVALLQERANKLVKYLMLKDYTKVPIKRSEMLRDIIREYTDVYPEIIERACFVLEKKFGIQLKEIDKEEHLYILISTPESLAGILGTTKDTPKLGLLLVILGVIFMNGNRASEAVLWEALRKMGLRPGVRHPLLGDLRKLLTYEFVKQKYLDYRRVPNSNPPEYEFLWGLRSYHETSKMKVLRFIAEVQKRDPRDWTAQFMEAADEALDALDAAAAEAEARAEARTRMGIGDEAVSGPWSWDDIEFELLTWDEEGDFGDPWSRIPFTFWARYHQNARSRFPQTFAGPIIGPGGTASANFAANFGAIGFFWVE
B2: MLXIP (protein, UniProt Q9HAP2 2-919, looked up)
MLX-interacting protein: AADVFMCSPRRPRSRGRQVLLKPQVSEDDDDSDTDEPSPPPASGAATPARAHASAAPPPPRAGPGREEPPRRQQIIHSGHFMVSSPHREHPPKKGYDFDTVNKQTCQTYSFGKTSSCHLSIDASLTKLFECMTLAYSGKLVSPKWKNFKGLKLQWRDKIRLNNAIWRAWYMQYLEKRKNPVCHFVTPLDGSVDVDEHRRPEAITTEGKYWKSRIEIVIREYHKWRTYFKKRLQQHKDEDLSSLVQDDDMLYWHKHGDGWKTPVPMEEDPLLDTDMLMSEFSDTLFSTLSSHQPVAWPNPREIAHLGNADMIQPGLIPLQPNLDFMDTFEPFQDLFSSSRSIFGSMLPASASAPVPDPNNPPAQESILPTTALPTVSLPDSLIAPPTAPSLAHMDEQGCEHTSRTEDPFIQPTDFGPSEPPLSVPQPFLPVFTMPLLSPSPAPPPISPVLPLVPPPATALNPPAPPTFHQPQKFAGVNKAPSVITHTASATLTHDAPATTFSQSQGLVITTHHPAPSAAPCGLALSPVTRPPQPRLTFVHPKPVSLTGGRPKQPHKIVPAPKPEPVSLVLKNARIAPAAFSGQPQAVIMTSGPLKREGMLASTVSQSNVVIAPAAIARAPGVPEFHSSILVTDLGHGTSSPPAPVSRLFPSTAQDPLGKGEQVPLHGGSPQVTVTGPSRDCPNSGQASPCASEQSPSPQSPQNNCSGKSDPKNVAALKNRQMKHISAEQKRRFNIKMCFDMLNSLISNNSKLTSHAITLQKTVEYITKLQQERGQMQEEARRLREEIEELNATIISCQQLLPATGVPVTRRQFDHMKDMFDEYVKTRTLQNWKFWIFSIIIKPLFESFKGMVSTSSLEELHRTALSWLDQHCSLPILRPMVLSTLRQLSTSTSILTDPAQLPEQASKAVTRIGKRLGES
B3: NAP1L1 (protein, UniProt P55209 2-388, looked up)
Nucleosome assembly protein …: ADIDNKEQSELDQDLDDVEEVEEEETGEETKLKARQLTVQMMQNPQILAALQERLDGLVETPTGYIESLPRVVKRRVNALKNLQVKCAQIEAKFYEEVHDLERKYAVLYQPLFDKRFEIINAIYEPTEEECEWKPDEEDEISEELKEKAKIEDEKKDEEKEDPKGIPEFWLTVFKNVDLLSDMVQEHDEPILKHLKDIKVKFSDAGQPMSFVLEFHFEPNEYFTNEVLTKTYRMRSEPDDSDPFSFDGPEIMGCTGCQIDWKKGKNVTLKTIKKKQKHKGRGTVRTVTKTVSNDSFFNFFAPPEVPESGDLDDDAEAILAADFEIGHFLRERIIPRSVLYFTGEAIEDDDDDYDEEGEEADEEGEEEGDEENDPDYDPKKDQNPAEC
B4: NEFL (protein, UniProt P07196 2-543, looked up)
Neurofilament light …: SSFSYEPYYSTSYKRRYVETPRVHISSVRSGYSTARSAYSSYSAPVSSSLSVRRSYSSSSGSLMPSLENLDLSQVAAISNDLKSIRTQEKAQLQDLNDRFASFIERVHELEQQNKVLEAELLVLRQKHSEPSRFRALYEQEIRDLRLAAEDATNEKQALQGEREGLEETLRNLQARYEEEVLSREDAEGRLMEARKGADEAALARAELEKRIDSLMDEISFLKKVHEEEIAELQAQIQYAQISVEMDVTKPDLSAALKDIRAQYEKLAAKNMQNAEEWFKSRFTVLTESAAKNTDAVRAAKDEVSESRRLLKAKTLEIEACRGMNEALEKQLQELEDKQNADISAMQDTINKLENELRTTKSEMARYLKEYQDLLNVKMALDIEIAAYRKLLEGEETRLSFTSVGSITSGYSQSSQVFGRSAYGGLQTSSYLMSTRSFPSYYTSHVQEEQIEVEETIEAAKAEEAKDEPPSEGEAEEEEKDKEEAEEEEAAEEEEAAKEESEEAKEEEEGGEGEEGEETKEAEEEEKKVEGAGEEQAAKKKD
B5: MORC4 (protein, UniProt Q8TE76 1-937, looked up)
MORC family CW-type zinc …: MLLYRGAPAGPGAPGCGLARPGGGPQAFGIRLSTMSPRYLQSNSSSHTRPFSAIAELLDNAVDPDVSARTVFIDVEEVKNKSCLTFTDDGCGMTPHKLHRMLSFGFTDKVIKKSQCPIGVFGNGFKSGSMRLGKDALVFTKNGGTLTVGLLSQTYLECVQAQAVIVPIVPFNQQNKKMIITEDSLPSLEAILNYSIFNRENDLLAQFDAIPGKKGTRVLIWNIRRNKNGKSELDFDTDQYDILVSDFDTEEKMTGGVTSELPETEYSLRAFCGILYMKPRMKIFLRQKKVTTQMIAKSLANVEYDTYKPTFTNKQVRITFGFSCKNSNQFGIMMYHNNRLIKSFEKVGCQVKPTRGEGVGVIGVIECNFLKPAYNKQDFEYTKEYRLTINALAQKLNAYWKEKTSQDNFETSTVARPIPKVPDQTWVQCDECLKWRKLPGKIDPSMLPARWFCYYNSHPKYRRCSVPEEQELTDEDLCLSKAKKQEQTVEEKKKMPMENENHQVFSNPPKILTVQEMAGLNNKTIGYEGIHSPSVLPSGGEESRSPSLQLKPLDSSVLQFSSKYKWILGEEPVEKRRRLQNEMTTPSLDYSMPAPYRRVEAPVAYPEGENSHDKSSSERSTPPYLFPEYPEASKNTGQNREVSILYPGAKDQRQGSLLPEELEDQMPRLVAEESNRGSTTINKEEVNKGPFVAVVGVAKGVRDSGAPIQLIPFNREELAERRKAVESWNPVPYSVASAAIPAAAIGEKARGYEESEGHNTPKLKNQRELEELKRTTEKLERVLAERNLFQQKVEELEQERNHWQSEFKKVQHELVIYSTQEAEGLYWSKKHMGYRQAEFQILKAELERTKEEKQELKEKLKETETHLEMLQKAQVSYRTPEGDDLERALAKLTRLRIHVSYLLTSVLPHLELREIGYDSEQVDGILYTVLEANHILD
B6: LRRTM1 (protein, UniProt Q86UE6 35-522, looked up)
Leucine-rich repeat …: APSGCPQLCRCEGRLLYCEALNLTEAPHNLSGLLGLSLRYNSLSELRAGQFTGLMQLTWLYLDHNHICSVQGDAFQKLRRVKELTLSSNQITQLPNTTFRPMPNLRSVDLSYNKLQALAPDLFHGLRKLTTLHMRANAIQFVPVRIFQDCRSLKFLDIGYNQLKSLARNSFAGLFKLTELHLEHNDLVKVNFAHFPRLISLHSLCLRRNKVAIVVSSLDWVWNLEKMDLSGNEIEYMEPHVFETVPHLQSLQLDSNRLTYIEPRILNSWKSLTSITLAGNLWDCGRNVCALASWLNNFQGRYDGNLQCASPEYAQGEDVLDAVYAFHLCEDGAEPTSGHLLSAVTNRSDLGPPASSATTLADGGEGQHDGTFEPATVALPGGEHAENAVQIHKVVTGTMALIFSFLIVVLVLYVSWKCFPASLRQLRQCFVTQRRKQKQKQTMHQMAAMSAQEYYVDYKPNHIEGALVIINEYGSCTCHQQPARECEV
B7: LZTS2 (protein, UniProt Q9BRK4 1-669, looked up)
Leucine zipper putative tumor …: MAIVQTLPVPLEPAPEAATAPQAPVMGSVSSLISGRPCPGGPAPPRHHGPPGPTFFRQQDGLLRGGYEAQEPLCPAVPPRKAVPVTSFTYINEDFRTESPPSPSSDVEDAREQRAHNAHLRGPPPKLIPVSGKLEKNMEKILIRPTAFKPVLPKPRGAPSLPSFMGPRATGLSGSQGSLTQLFGGPASSSSSSSSSSAADKPLAFSGWASGCPSGTLSDSGRNSLSSLPTYSTGGAEPTTSSPGGHLPSHGSGRGALPGPARGVPTGPSHSDSGRSSSSKSTGSLGGRVAGGLLGSGTRASPDSSSCGERSPPPPPPPPSDEALLHCVLEGKLRDREAELQQLRDSLDENEATMCQAYEERQRHWQREREALREDCAAQAQRAQRAQQLLQLQVFQLQQEKRQLQDDFAQLLQEREQLERRCATLEREQRELGPRLEETKWEVCQKSGEISLLKQQLKESQAELVQKGSELVALRVALREARATLRVSEGRARGLQEAARARELELEACSQELQRHRQEAEQLREKAGQLDAEAAGLREPPVPPATADPFLLAESDEAKVQRAAAGVGGSLRAQVERLRVELQRERRRGEEQRDSFEGERLAWQAEKEQVIRYQKQLQHNYIQMYRRNRQLEQELQQLSLELEARELADLGLAEQAPCICLEEITATEI

Key:
HCV proteins = target: T1, HCV proteins (Hepatitis C virus genotype 1b, UniProt Q9WMX2); assay: Validation by Y2H pairwise matrices; assay type: binding;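 note: yeast two-hybrid pairwise tests of interactions first found in Y2H screens of HCV bait proteins against human cDNA libraries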
T1 construct: expressed in transfected cells

[1] = target: T2, HCV ORFs (Gal4-DB fusions) (Hepatitis C virus genotype 1b, UniProt Q9WMX2); assay type: binding, HCV genotype 1b, isolate con1; settings: human protein as prey
T2 construct: expressed in transfected cells; host or cells: Saccharomyces cerevisiae MAV203 (IMAP1) / AH109 (IMAP2)

[2] = system: HCV ORFs (Gal4-DB fusions); assay type: binding, HCV genotype 1b, isolate con1; settings: human protein listed by gene symbol; the value names the HCV protein it interacts with
[3] = validation of interaction with HCV protein CORE
[4] = validation of interaction with HCV protein NS3
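Throughout, for IMAP Y2H IMAP1 (number of IST): yeast two-hybrid screens using HCV genotype 1b proteins fused to Gal4-DB as baits against prey cDNA libraries from human spleen and foetal brain, IMAP1 via transformation and IMAP2 via mating.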
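Throughout, for IMAP Y2H IMAP2 (number of IST): yeast two-hybrid screens using HCV genotype 1b proteins fused to Gal4-DB as baits against prey cDNA libraries from human spleen and foetal brain, IMAP1 via transformation and IMAP2 via mating.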
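Throughout, for Interaction with viral protein: yeast two-hybrid screens using HCV genotype 1b proteins fused to Gal4-DB as baits against prey cDNA libraries from human spleen and foetal brain, IMAP1 via transformation and IMAP2 via mating.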

Molecule	Y2H matrices (HCV proteins; [3])	Y2H matrices (HCV proteins; [4])	IMAP Y2H IMAP1 (number of IST) ([1]; HCV protein CORE as bait)	IMAP Y2H IMAP2 (number of IST) ([1]; HCV protein CORE as bait)	IMAP Y2H IMAP1 (number of IST) ([1]; HCV protein NS3 as bait)	Interaction with viral protein [2]	Y2H matrices (HCV proteins; interaction with HCV protein NS5A)	IMAP Y2H IMAP2 (number of IST) ([1]; HCV protein NS3 as bait)	IMAP Y2H IMAP1 (number of IST) ([1]; HCV protein NS5A as bait)	IMAP Y2H IMAP2 (number of IST) ([1]; HCV protein NS5A as bait)
B1	+	+	1	2	1	NS3 and CORE	–	–	–	–
B2	–	+	–	–	1	NS3	–	–	–	–
B3	–	–	–	–	–	NS3 and NS5A	+	1	1	31
B4	–	+	–	–	1	NS3	–	–	–	–
B5	–	+	–	–	1	NS3	–	–	–	–
B6	+	–	1	–	–	CORE	–	–	–	–
B7	–	+	–	–	8	NS3	–	–	–	–
